Here are results for one substance from article PMC9068512.

This assay deals with modified calcium-permeable rat GluA2flip subunit with Q586 at the Q/R site (GluA2*), as the GluA2 portion of the GluA2–γ2 fusion (rat) (UniProt P19491). Put plainly: cryo-EM structure; purified GluA2–γ2 fusion in 150 mM NaCl, 20 mM Tris-HCl pH 8.0, 0.05% digitonin, supplemented with 20 µM Glu and 100 µM CTZ; seven LBD–TMD reconstructions (NNNN, GNNN, GNGN1, GNGN2, GGNN, GGGN, GGGG).

What is called stoichiometry N is a count of units in the complex or per binding partner. Regarding “modified calcium-permeable rat GluA2flip subunit with Q586 at the Q/R site (GluA2*), as the GluA2 portion of the GluA2–γ2 fusion (from UniProt P19491-2 22-883) (receptor)”, the stoichiometry N turned out to be 4.
